Data: patent US20190307907A1, “MOLECULAR SENSOR FOR NMR/MRI BASED ON ANALYTE-DEPENDENT SPECTRAL CHANGES OF TEMPORARILY ENCAPSULATED HYPERPOLARIZED 129XE” (KLINIKUM RECHTS DER ISAR DER TECHNISCHEN UNIVERSITÄT MÜNCHEN, priority 2016, published 2019)
Where no end group is shown, it is not given here. Cr‑A = cryptophane A cage on the Lys side chain; 5‑Fluo‑M = fluorescein maleimide

Tests used:
calmodulin [1] = biological target: T1, calmodulin (Homo sapiens, UniProt P0DP23); test: Hyper-CEST spectra of cryptophane-conjugated peptides with calmodulin in absence and presence of calcium (FIG. 5); type: biochemical; settings: peptide 1 μM, calmodulin 3 μM, MOPS; for Ca2+-dependent CEST unsuppression / signal change on calmodulin binding: calcium up to 100 μM; for CEST suppression (baseline, absence of calcium): no calcium, hyperpolarized 129Xe, 9.4 T
Procedure: Hyperpolarized Xenon was bubbled into buffered (MOPS) solutions containing different cryptophane bearing peptides indicated in the respective subfigures (1 μM) and calmodulin (3 μM) in the absence and presence of 100 μM calcium and CEST spectra were obtained on a 9.4 T Bruker AV 400 wide bore NMR spectrometer. (E) Effects of C-terminal portion of RS20 on the NMR-signal modulation. Replacement of the maleimide-Fluorescein by a maleimide capping group (NEM) partially unsuppresses the CEST effect.
However, the CEST suppression and Ca^2+-mediated unsuppression is weaker if the cryptophane cage is attached at the third lysine (@K3, FIG. 5B). […] (FIG. 5C).
(§1) The production, delivery and application of hyperpolarized Xe for NMR and MRI studies has been described previously including a full list of materials (Witte et al., 2012; Witte et al., 2014). Typically, hyperpolarized ^129Xe (20% polarization and more) is generated by spin exchange optical pumping using a 150 W continuous wave laser (795 nm, 0.5 nm bandwidth) in a custom-designed continuous flow setup at 4.5 bar absolute pressure using a gas mixture of 5% Xe (26.4% natural abundance of ^129Xe), 10% N2, and 85% He.
Experiments benefit from high field MRI scanners because of the increased spectral resolution for resolving the CEST response. As an example, a 9.4 T NMR spectrometer can be used for the NMR experiments. It requires gradient coils for MR imaging and a variable temperature unit for adjusting the sample temperature. A 10 mm inner-diameter double resonant probe (^129Xe (110 MHz) and ^iH (400 MHz)), can be used for excitation and detection.
The freshly hyperpolarized xenon gas mix is directly bubbled into solution for ca. 15 seconds at a total flow rate of 0.1 SLM followed by a 1 s delay (to allow possible remaining bubbles to collapse) before signal acquisition. To reduce foaming, 0.1% of Pluronic® L81 may be added to the sample. After bubbling, a saturation RF pulse is irradiated at the desired frequency and the signal of free Xe in solution is observed. ^129Xe Hyper-CEST MR images can be acquired using averages of a RARE sequence with a slice-selective 90° gaussian shaped excitation pulse and high RARE factor (up to 32 for a 32×32 matrix size) due to sufficiently slow T2 relaxation. Two images are acquired, one with an off-resonant saturation pulse for control and one with an on-resonant saturation pulse to induce signal loss in the vicinity of the sensor. Hyper-CEST MR images are obtained by a pixel-wise subtraction of the noise corrected off- and on-resonant images. All data analysis was performed with MATLAB®.

[2] = tested on: lysates obtained from HEK293 cells; test: Functionality of the sensor in cell lysates (FIG. 13); type: biochemical; settings: for sensor response on addition of saturating calcium: HEK293 lysate with CaM, saturating amounts of calcium; for sensor response on addition of just CaM: HEK293 lysate, calcium already present in the lysate
Procedure: FIG. 13: Functionality of the sensor in cell lysates. The sensor M13-based sensor (blue) and RS20-based sensor (red) were added to lysates obtained from HEK293 cells.

calmodulin [3] = biological target: T1, calmodulin; test: Hyper-CEST calcium titration, binding curves of cryptophane-peptide sensors with calmodulin; settings: from CEST binding curves; 2 μM calmodulin; free calcium 0 to 39 μM; MOPS buffer; read-out: apparent dissociation constant
Procedure: (A) CEST spectra from M13 with a cryptophane Cage and also harboring a fluorescein (G-K(Cr-A)-[…]-C(5-Fluo-M)-amid) where Cr-A denotes the cryptophane A cage attached on the lysine residue and 5-Fluo-M a fluorescein attached to a cysteine) in the presence of 2 μM calmodulin and in response to free calcium concentrations ranging from 0 to 39 μM (MOPS buffer) (B) CEST spectra from RS20 (GRR-K(Cr-A)-WQKTGHAVRAIGRLSSS-C(5-Fluo-M)-amid; same annotation of modifications as in (A)) plotted analogously as in (A). (C) Corresponding binding curves yielding an apparent dissociation constant of 0.91 μM and 1 μM for M13 and RS20 respectively.
as §1
Experiments benefit from high field MRI scanners because of the increased spectral resolution for resolving the CEST response. As an example, a 9.4 T NMR spectrometer can be used for the NMR experiments. […]

[4] = Circular dichroism and CEST spectra at different trifluoroethanol (TFE) concentrations (FIG. 12); type: physicochemical; settings: for CEST signal in TFE: 20% and 50% TFE; for CEST signal in TFE / CEST signal in water: without Ca2+ or CaM; for helicity of the peptide moiety (CD spectra): different concentrations of TFE
Excerpt: FIG. 12: Spectroscopic changes upon conformational change.

HEK293 cells = test: Cellular uptake of cage-conjugated peptides, confocal microscopy and FACS (FIG. 8); type: cell-based; settings: 25 μM, 20 minutes
Procedure: (A) Cage-conjugated peptides that were also labeled with fluorescein (25 μM) were incubated on HEK293 cells for 20 minutes followed by confocal microscopy imaging (nuclear counterstain with DAPI). (B) Analysis of FACS experiments with cells incubated with different peptides modified with cryptophane cages and fluorescein indicating labeling of the cells with the fluorescent peptides (sequences as indicated in FIG. 2; @K# indicates the lysine residue number used for conjugation of the cryptophane cage). […] The cellular uptake of similar EF-protein-binding peptides is likely due to their high scores on prediction tools for cell-penetration such as CPPpred or CellPPD.

Substance | Ca2+-dependent CEST unsuppression / signal change on calmodulin binding (calmodulin [1]; listed as cage-conjugated calcineurin) | CEST suppression (baseline, absence of calcium) (calmodulin [1]) | sensor response on addition of saturating calcium [2] | sensor response on addition of just CaM [2] | Kd (calmodulin [3]) | CEST signal in TFE [4] | helicity of the peptide moiety (CD spectra) [4] | CEST signal in water [4] | Ca2+-dependent CEST unsuppression / signal change on calmodulin binding (calmodulin [1]) | cellular uptake (confocal microscopy) (HEK293 cells) | Ca2+-dependent CEST unsuppression / signal change on calmodulin binding (calmodulin [1]; listed as @K3) | Ca2+-dependent CEST unsuppression / signal change on calmodulin binding (calmodulin [1]; listed as RS20-cage@K2) | CEST suppression (baseline, absence of calcium) (calmodulin [1]; listed as @K3) | CEST suppression (baseline, absence of calcium) (calmodulin [1]; listed as RS20-cage@K2)
ARKEVIRNKIRAIGK-CrytophaneCage-MARVFSVLR [calcineurin A peptide] | does not exhibit a change in the CEST effect | neither show a suppression |  |  |  |  |  |  |  |  |  |  |  | 
G-K(Cr-A)-RRWKKNFIAVSAANRFKKISSSGAL-C(5-Fluo-M)-amid (GKRRWKKNFIAVSAANRFKKISSSGALC; cryptophane A on Lys; fluorescein on Cys; amide; Cr-A@K1_M13_Fluorescein) |  |  | stronger response | turned on the sensor | 910 nM | turned on | increase of the helicity | no CEST signal |  |  |  |  |  | 
GRR-K(Cr-A)-WQKTGHAVRAIGRLSSS-C(5-Fluo-M)-amid (GRRK(Cr‑A)WQKTGHAVRAIGRLSSSC(5‑Fluo‑M)-NH2) [Cr-A@K1_RS20_Fluorescein] |  | complete CEST suppression | stronger response | turned on the sensor | 1000 nM | turned on | increase of the helicity | no CEST signal | strong, Ca^2+-dependent CEST unsuppression | uptake |  |  |  | 
GRRKWQK(Cr-A)-TGHAVRAIGRLSSS-C(5-Fluo-M)-amid (GRRKWQK(Cr‑A)TGHAVRAIGRLSSSC(5‑Fluo‑M)-NH2) [Cr-A@K3_RS20_Fluorescein, RS20 peptide with cryptophane A shifted three amino acids toward the center, C-terminal fluorescein] |  |  |  |  |  |  |  |  |  |  | weaker | diminishes | weaker | diminishes the CEST suppression
